Assay results as given in the RNAGym collection of RNA variant scans (doi:10.7554/elife.90254).

B1: LINE1-full (parent)
chain: UACGUAGGUGGUUUUCCCCUGAUAGUGCUAAGGGGGCCUGGAAGUUUGGACUGGGCAGAGCUCAACACAGCGUGGCAAAGUGGCUGUGGCUAGACUGCCUCUCUGGAUUCCUCGUCACUCAGCAGGGCAUCUCUGAGAGAAAUGCC

Variants of: B1
Experiment: self-cleavage, relative activity (ratio to wild type); higher = more cleavage; in vitro, sequencing; the parent is a self-cleaving ribozyme

| Variant | self-cleavage |
| --- | --- |
| UACGAAGGUGGUUUUCCCCUGAUAGUGCUAAGGGGGCCUGGAAGUUUGGACUGGGCAGAGCUCAACACAGCGUGGCAAAGUGGCUGUGGCUAGACUGCCUCUCUGGAUUCCUCGUCACUCAGCAGGGCAUCUCUGAGCGAAAUGCC [U5A A138C] | 0.98 |
| UACGAAGGUGGUUUUCCCCUGAUAGUGCUAAGGGGGCCUGGAAGUUUGGACUAGGCAGAGCUCAACACAGCGUGGCAAAGUGGCUGUGGCUAGACUGCCUCUCUGGAUUCCUCGUCACUCAGCAGGGCAUCUCUGAGAGAAAUGCC [U5A G53A] | 0.79 |
| UACUUAGGUGGUUUUCCCCUGAUAGUGCUAAGGGGGCCUGGAAGUUUGGACUGGGCAGAGCUCAACACAGCGUGGCAAAGUGGCUGUGGCUAGACUGCCUCUCUGGAUCCCUCGUCACUCAGCAGGGCAUCUCUGAGAGAAAUGCC [G4U U109C] | 1.07 |
| UACUUAGGUGGUUUUCCCCUGAUAGUGCUAAGGGGGCCUGGAAGUUUGGACUGGGCAGAGCUCAACACAGCGUGGCAAAGUGGCUGUGGCUAGACUGCCUCUCUGGAUUCCUCGUCACUCUGCAGGGCAUCUCUGAGAGAAAUGCC [G4U A121U] | 1.23 |
| UACGAAGGUGGUUUUCCCCUGAUAGUGCUAAGGGGGCCUGGAAGUUUGGACUGGGCAGAGCUCAACACAGCGUGGCGAAGUGGCUGUGGCUAGACUGCCUCUCUGGAUUCCUCGUCACUCAGCAGGGCAUCUCUGAGAGAAAUGCC [U5A A77G] | 2.07 |
| UACGAAGGUGGUUUUCCCCUGAUAGUGCUAAGGGGGCCUGGAAGUUUGGACUGGGCAGAGCUCAACACGGCGUGGCAAAGUGGCUGUGGCUAGACUGCCUCUCUGGAUUCCUCGUCACUCAGCAGGGCAUCUCUGAGAGAAAUGCC [U5A A69G] | 0.45 |
| UACGAAGGUGGUUUUCCCCUGAUAGUGCUAAGGGGGCCUGGAAGUUUGGACUGGGCAGAGCUCAACACUGCGUGGCAAAGUGGCUGUGGCUAGACUGCCUCUCUGGAUUCCUCGUCACUCAGCAGGGCAUCUCUGAGAGAAAUGCC [U5A A69U] | 0.09 |
| UACUUAGGUGGUUUUCCCCUGAUAGUGCUAAGGGGGCCUGGAAGUUUGGACUGGGCAGAGCUCAACACAGCGUGGCAAAGUGGCUGUGGCUAGACUGCCUCUCUGGAUUCCUCGUCACUCAGCAGGGCAUCUCUGGGAGAAAUGCC [G4U A136G] | 1.91 |
| UACGAAGGUGGUUUUCCCCUGAUAGUGCUAAGGGGGCCUGGAAGUUUGGACUGGGCAGAGCUCAACACAGCGUGGCAAAGUGGCUGUGGCUAGACUGCCUCUCUGGAUUCCUCGUCACUCAGCAGGGCAUCUCUGAGAGUAAUGCC [U5A A140U] | 1.09 |
| UACGAAGGUGGUUUUCCCCUGAUAGUGCUAAGGGGGCCUGGAAGUUUGGACUGGGCAGAGCUCAACACAGCGUGGCAAAGUGGCUGUGGCUAGACUGCCUCUCUGGAUUCCUCGUCACUCAGCAGGGUAUCUCUGAGAGAAAUGCC [U5A C128U] | 1.06 |
| UACGAAGGUGGUUUUCCCCUGAUAGUGCUAAGGGGGCCUGGAAGUUUGGACUGGGCAGAGCUCAACACAGCGUGGCAAAGUGGCUGUGGCUAGGCUGCCUCUCUGGAUUCCUCGUCACUCAGCAGGGCAUCUCUGAGAGAAAUGCC [U5A A94G] | 0.44 |
| UACGAAGGUGGUUUUCCCCUGAUAGUGCUAAGGGGGCCUGGAAGUUUGGACUGGGCAGAGCUCAACACAGCGUGGCAAAGUGGCUGUGGCUAGUCUGCCUCUCUGGAUUCCUCGUCACUCAGCAGGGCAUCUCUGAGAGAAAUGCC [U5A A94U] | 0.32 |
| UACGAAGGUGGUUUUCCCCUGAUAGUGCUAAGGGGGCCUGGAAGUUUGGACUGGGCAGAGCUCAACACAGCGUGGCAAAGUGGCUGUGGCUAGACUGCCUCUCUGGAUUCCUCGUCACUCAGCAGGGCAUCUCUGAGAGAAAUGCC [U5A] | 0.95 |
| UACGAAGGUGGUUUUCCCCUGAUAGUGCUAAGGGGGCCUGGAAGUUUGGACUGGGCAGAGCUCAACACAGCGUGGCAAAGUGGCUGUGGCUAGACUGCCUCUCUGGAUUCCUCGUCACUCAGCAGGGCGUCUCUGAGAGAAAUGCC [U5A A129G] | 0.79 |
| UACGAAGGUGGUUUUCCCCUGAUAGUGCUAAGGGGGCCUGGAAGUUUGGACUGGGCUGAGCUCAACACAGCGUGGCAAAGUGGCUGUGGCUAGACUGCCUCUCUGGAUUCCUCGUCACUCAGCAGGGCAUCUCUGAGAGAAAUGCC [U5A A57U] | 0.34 |
| UACGAAGGUGGUUUUCCCCUGAUAGUGCUAAGGGGGCCUGGAAGUUUGGACUGGGCGGAGCUCAACACAGCGUGGCAAAGUGGCUGUGGCUAGACUGCCUCUCUGGAUUCCUCGUCACUCAGCAGGGCAUCUCUGAGAGAAAUGCC [U5A A57G] | 0.83 |
| UACUUAGGUGGUUUUCCCCUGAUAGUGCUAAGGGGGCCUGGAAGUUUGGACAGGGCAGAGCUCAACACAGCGUGGCAAAGUGGCUGUGGCUAGACUGCCUCUCUGGAUUCCUCGUCACUCAGCAGGGCAUCUCUGAGAGAAAUGCC [G4U U52A] | 1.01 |
| UACUUAGGUGGUUUUCCCCUGAUAGUGCUAAGGGGGCCUGGAAGUUUGGACUGGGCAGAGCUCAACACAGCGUGGCAAAGUGGCUGUGGCUAGACUGCCUCUCUGGAUUCCUCGUCACUCAGCAGGGCAUCUCAGAGAGAAAUGCC [G4U U134A] | 1.07 |
| UACGAAGGUGGUUUUCCCCUGAUAGUGCUAAGGGGACCUGGAAGUUUGGACUGGGCAGAGCUCAACACAGCGUGGCAAAGUGGCUGUGGCUAGACUGCCUCUCUGGAUUCCUCGUCACUCAGCAGGGCAUCUCUGAGAGAAAUGCC [U5A G36A] | 1.19 |
| UACGAAGGUGGUUUUCCCCUGAUAGUGCUAAGGGGGCCUGGAAGUUUGGACUGGGCAGAGCUCAACACAGCGUGGCAAAGUGGCUGUGGCUAGACUGCCUCUCUGAAUUCCUCGUCACUCAGCAGGGCAUCUCUGAGAGAAAUGCC [U5A G106A] | 1.14 |

| Variant | self-cleavage |
| --- | --- |
| UACUUAGGUGGUUUUCCCCUGAUAGUGCUAAGGGGGCCUGGAAGUUUGGACUGGGCAGAGCUCAACACAGCGUGGCAAAGUGGCUGUGGCUAGACUGCCUCUCUGGAUUCCUCGUCACUCAGCAGGGCAUCUCUGAGUGAAAUGCC [G4U A138U] | 1.19 |
| UACGAAGGUGGUUUUCCCCUGAUAGUGCUAAGGGGGCCUGGAAGUUUGGACUGGGCAGAGCUCAACACAGCGUGGCAAAGUGGCUGUGGCUAGAUUGCCUCUCUGGAUUCCUCGUCACUCAGCAGGGCAUCUCUGAGAGAAAUGCC [U5A C95U] | 0.14 |
| UACGAAGGUGGUUUUCCCCUGAUAGUGCUAAGGGGGCGUGGAAGUUUGGACUGGGCAGAGCUCAACACAGCGUGGCAAAGUGGCUGUGGCUAGACUGCCUCUCUGGAUUCCUCGUCACUCAGCAGGGCAUCUCUGAGAGAAAUGCC [U5A C38G] | 0.71 |
| UACUUAGGUGGUUUUCCCCUGAUAGUGCUAAGGGGGCCUGGAAGUUUGGACUGGGCAGAGCUCAACACAGCGUGGCAAAGCGGCUGUGGCUAGACUGCCUCUCUGGAUUCCUCGUCACUCAGCAGGGCAUCUCUGAGAGAAAUGCC [G4U U81C] | 0.2 |
| UACUUAGGUGGUUUUCCCCUGAUAGUGCUAAGGGGGCCAGGAAGUUUGGACUGGGCAGAGCUCAACACAGCGUGGCAAAGUGGCUGUGGCUAGACUGCCUCUCUGGAUUCCUCGUCACUCAGCAGGGCAUCUCUGAGAGAAAUGCC [G4U U39A] | 1.95 |
| UACGAAGGUGGUUUUCCCCUGAUAGUGCUAAGGGGGCCUGGAAGUUUGGACUGGGCAGAGCUCAACACAGCGUGGCAAAGUGGCUGUGGCUAGACUGCCUCUCUGGAUUCCUCGUCACUCAGCAGGGCAUCUCUGAGAGAAGUGCC [U5A A142G] | 0.89 |
| UACUUAGGUGGUUUUCCCCUGAUAGUGCUAAGGGGGCCUGGAAGUUUGGACUGGGCAGAGCUCAACACAGCGUGGCAGAGUGGCUGUGGCUAGACUGCCUCUCUGGAUUCCUCGUCACUCAGCAGGGCAUCUCUGAGAGAAAUGCC [G4U A78G] | 1.05 |
| UACGAAGGUGGUUUUCCCCUGAUAGUGCUAAGGGGGCCUGGAAGUUUGGACUGGGCAGAGCUCAACGCAGCGUGGCAAAGUGGCUGUGGCUAGACUGCCUCUCUGGAUUCCUCGUCACUCAGCAGGGCAUCUCUGAGAGAAAUGCC [U5A A67G] | 0.7 |
| UACGAUGGUGGUUUUCCCCUGAUAGUGCUAAGGGGGCCUGGAAGUUUGGACUGGGCAGAGCUCAACACAGCGUGGCAAAGUGGCUGUGGCUAGACUGCCUCUCUGGAUUCCUCGUCACUCAGCAGGGCAUCUCUGAGAGAAAUGCC [U5A A6U] | 1.23 |
| UACGAGGGUGGUUUUCCCCUGAUAGUGCUAAGGGGGCCUGGAAGUUUGGACUGGGCAGAGCUCAACACAGCGUGGCAAAGUGGCUGUGGCUAGACUGCCUCUCUGGAUUCCUCGUCACUCAGCAGGGCAUCUCUGAGAGAAAUGCC [U5A A6G] | 2.12 |
| UACGAAGGUGGUUUUCCCCUGAUAGUGCUAAGGGGGCCUGGAAGUUUGGACUGGGCAGAGCUCAACACAGCGUGGCAAAGUGGCUGUGGCUAGACUGCCUCUCUGGAUUCCUCGUCACUCAGCAGGGCAUCUCUGGGAGAAAUGCC [U5A A136G] | 1.14 |
| UACGAAGGUGGUUUUCCCCUGAUAGUGCUAAGGGGGCCUGGAAGUUUGGACUGGGCAGAGCUCAACACAGCGUGGCAAAGUGGCUGUGGCUAGACUGCCUCUCUGGAUUCCUCGUCACUCAGCAGGGCAUCUCUGUGAGAAAUGCC [U5A A136U] | 1.11 |
| UACUUAGGUGGUUUUCCCCUGAUAGUGCUAAGGGGGCCUGGAAGUUUGGACUGGGCAGAGCUCAACACAGCGUGGCAAAGUGGCUGUGGCUAGACUGCCUCUCUGGAUUCCUCGUCACCCAGCAGGGCAUCUCUGAGAGAAAUGCC [G4U U119C] | 1.31 |
| UACGAAGGUGGUUUUCCCCUGAUAGUGCUAAGGGGGCCUGGAAGUUUGAACUGGGCAGAGCUCAACACAGCGUGGCAAAGUGGCUGUGGCUAGACUGCCUCUCUGGAUUCCUCGUCACUCAGCAGGGCAUCUCUGAGAGAAAUGCC [U5A G49A] | 0.5 |
| UACGAAGGUGGUUUUCCCCUGAUAGUGCUAAGGGGGCCUGGAAGUUUGGACUGGGCAGAGCUCCACACAGCGUGGCAAAGUGGCUGUGGCUAGACUGCCUCUCUGGAUUCCUCGUCACUCAGCAGGGCAUCUCUGAGAGAAAUGCC [U5A A64C] | 0.19 |
| UACGAAGGUGGUUUUCCCCUGAUAGUGCUAAGGGGGCCUGGAGGUUUGGACUGGGCAGAGCUCAACACAGCGUGGCAAAGUGGCUGUGGCUAGACUGCCUCUCUGGAUUCCUCGUCACUCAGCAGGGCAUCUCUGAGAGAAAUGCC [U5A A43G] | 0.76 |
| UACGAAGGUGGUUUUCCCCUGAUAGUGCUAAGGGGGCCUGGAAGUUUGGACUGGGCAGAGCUCACCACAGCGUGGCAAAGUGGCUGUGGCUAGACUGCCUCUCUGGAUUCCUCGUCACUCAGCAGGGCAUCUCUGAGAGAAAUGCC [U5A A65C] | 0.08 |
| UACGAAGGCGGUUUUCCCCUGAUAGUGCUAAGGGGGCCUGGAAGUUUGGACUGGGCAGAGCUCAACACAGCGUGGCAAAGUGGCUGUGGCUAGACUGCCUCUCUGGAUUCCUCGUCACUCAGCAGGGCAUCUCUGAGAGAAAUGCC [U5A U9C] | 0.81 |
| UACUCAGGUGGUUUUCCCCUGAUAGUGCUAAGGGGGCCUGGAAGUUUGGACUGGGCAGAGCUCAACACAGCGUGGCAAAGUGGCUGUGGCUAGACUGCCUCUCUGGAUUCCUCGUCACUCAGCAGGGCAUCUCUGAGAGAAAUGCC [G4U U5C] | 0.79 |
